According to patent publication US20190300618A1 (Merck Sharp & Dohme, published 2019):

B1: Humanized CD27 131A VH6/VL7-hIgG1 (antibody, V domains shown)
VH: EIQLVQSGAEVKKPGASVKVSCKASGYTFTNYGMNWVKQAPGQGLKWMGWINTNTGEPTYAEEFKGRFTFTLDTSISTAYMELSSLRSEDTAVYYCAREGDAMDYWGQGTTVTVSS
VL: EIVLTQSPATLSLSPGERATLSCSASSSVSYMHWYQQKPGQAPKRWIYDTSKLASGVPARFSGSGSGTSYSLTISSLEPEDFATYYCQQWNSYPFTFGQGTKLEIK
notes: human IgG1 constant region; also called hCD27.131A VH6VL7 hulgG1
B2: Humanized CD27 131A VH6/VL8-hIgG1 (antibody, V domains shown)
VH: EIQLVQSGAEVKKPGASVKVSCKASGYTFTNYGMNWVKQAPGQGLKWMGWINTNTGEPTYAEEFKGRFTFTLDTSISTAYMELSSLRSEDTAVYYCAREGDAMDYWGQGTTVTVSS
VL: EIVLTQSPATLSASPGERVTLSCSASSSVSYMHWYQQKPGQAPKRWIYDTSKLASGVPARFSGSGSGTDYSLTISSMEPEDFAVYYCQQWNSYPFTFGQGTKLEIK
notes: human IgG1 constant region; also called hCD27.131A VH6VL8 hulgG1
B3: Humanized CD27 131A VH7/VL6-hIgG1 (antibody, V domains shown)
VH: EIQLVQSGAEVKKPGASVKISCKASGYTFTNYGMNWVKQAPGQGLKWMGWINTNTGEPTYAEEFKGRFTFTLDTSATTAYLEISSLRSEDTAVYYCAREGDAMDYWGQGTTVTVSS
VL: EIVLTQSPATLSLSPGERATLSCSASSSVSYMHWYQQKPGQAPKRWIYDTSKLASGVPARFSGSGSGTDYSLTISSLEPEDFAVYYCQQWNSYPFTFGQGTKLEIK
notes: human IgG1 constant region; also called hCD27.131A VH7VL6 hulgG1
B4: Humanized CD27 131A VH7/VL7-hIgG1 (antibody, V domains shown)
VH: EIQLVQSGAEVKKPGASVKISCKASGYTFTNYGMNWVKQAPGQGLKWMGWINTNTGEPTYAEEFKGRFTFTLDTSATTAYLEISSLRSEDTAVYYCAREGDAMDYWGQGTTVTVSS
VL: EIVLTQSPATLSLSPGERATLSCSASSSVSYMHWYQQKPGQAPKRWIYDTSKLASGVPARFSGSGSGTSYSLTISSLEPEDFATYYCQQWNSYPFTFGQGTKLEIK
notes: human IgG1 constant region; also called hCD27.131A VH7VL7 hulgG1
B5: Humanized CD27 131A VH7/VL8-hIgG1 (antibody, V domains shown)
VH: EIQLVQSGAEVKKPGASVKISCKASGYTFTNYGMNWVKQAPGQGLKWMGWINTNTGEPTYAEEFKGRFTFTLDTSATTAYLEISSLRSEDTAVYYCAREGDAMDYWGQGTTVTVSS
VL: EIVLTQSPATLSASPGERVTLSCSASSSVSYMHWYQQKPGQAPKRWIYDTSKLASGVPARFSGSGSGTDYSLTISSMEPEDFAVYYCQQWNSYPFTFGQGTKLEIK
notes: human IgG1 constant region; also called hCD27.131A VH7VL8 hulgG1
B6: Humanized CD27 131A VH8/VL6-hIgG1 (antibody, V domains shown)
VH: EIQLVQSGAEVKKPGASVKVSCKASGYTFTNYGMNWVKQAPGQGLKWMGWINTNTGEPTYAEEFKGRFTFTLDTSISTAYMELSSLRNEDTAVYYCAREGDAMDYWGQGTTVTVSS
VL: EIVLTQSPATLSLSPGERATLSCSASSSVSYMHWYQQKPGQAPKRWIYDTSKLASGVPARFSGSGSGTDYSLTISSLEPEDFAVYYCQQWNSYPFTFGQGTKLEIK
notes: human IgG1 constant region; also called hCD27.131A VH8VL6 hulgG1
B7: Humanized CD27 131A VH8/VL7-hIgG1 (antibody, V domains shown)
VH: EIQLVQSGAEVKKPGASVKVSCKASGYTFTNYGMNWVKQAPGQGLKWMGWINTNTGEPTYAEEFKGRFTFTLDTSISTAYMELSSLRNEDTAVYYCAREGDAMDYWGQGTTVTVSS
VL: EIVLTQSPATLSLSPGERATLSCSASSSVSYMHWYQQKPGQAPKRWIYDTSKLASGVPARFSGSGSGTSYSLTISSLEPEDFATYYCQQWNSYPFTFGQGTKLEIK
notes: human IgG1 constant region; also called hCD27.131A VH8VL7 hulgG1
B8: Humanized CD27 131A VH8/VL8-hIgG1 (antibody, V domains shown)
VH: EIQLVQSGAEVKKPGASVKVSCKASGYTFTNYGMNWVKQAPGQGLKWMGWINTNTGEPTYAEEFKGRFTFTLDTSISTAYMELSSLRNEDTAVYYCAREGDAMDYWGQGTTVTVSS
VL: EIVLTQSPATLSASPGERVTLSCSASSSVSYMHWYQQKPGQAPKRWIYDTSKLASGVPARFSGSGSGTDYSLTISSMEPEDFAVYYCQQWNSYPFTFGQGTKLEIK
notes: human IgG1 constant region; also called hCD27.131A VH8VL8 hulgG1
B9: Humanized CD27 131A VH9/VL9-hIgG1 (antibody, V domains shown)
VH: EIQLVQSGAEVKKPGASVKVSCKASGYTFTNYGMNWVRQAPGQGLKWMGWINTNTGEPTYAEEFKGRFTFTLDTSASTAYMELSSLRSEDTAVYYCAREGDAMDYWGQGTTVTVSS
VL: DIQLTQSPSTLSASVGDRVTITCSASSSVSYMHWYQQKPGKAPKRWIYDTSKLASGVPARFSGSGSGTDYTLTISSLQPEDFATYYCQQWNSYPFTFGQGTKLEIK
notes: human IgG1 constant region; also called hCD27.131A VH9VL9 hulgG1

Legend:
[1] = target: human CD27 (wild type), expressed on cells (human) (UniProt P26842); test: flow cytometry, transiently transfected CHO-K1; empty vector: GM FITC 212
[2] = target: human CD27 (A59T), expressed on cells (human) (UniProt P26842); test: as above
[3] = target: human CD27 (wild type), expressed on cells (human) (UniProt P26842); test: flow cytometry, transiently transfected CHO-K1; empty vector: + 5.32
[4] = target: human CD27 (A59T), expressed on cells (human) (UniProt P26842); test: as above
[5] = target: T1, human CD27 (wild type), expressed on cells (human, UniProt P26842 21-260); test: flow cytometry on primary T cells
T1 construct: on transfected CHO-K1 / CHOK1 cells, transfected HEK293FT reporter cells or primary human T cells; also called hCD27; HsCD27
Protocol: Labeled cells were washed by re-suspending them in 150 ul of staining buffer (SB) followed by centrifugation at 300 g for 5 minutes. Cells were then resuspended in 100 ul of SB containing primary anti-CD27 antibodies at various concentrations, incubated in the dark at 4° C. for 30 minutes, followed by washing and centrifugation steps as previously described. […] Cells were incubated for 30 minutes at 4° C. in the dark, followed by washing and centrifugation steps. Next, cells were stained with a cocktail of phenotypic antibodies for surface markers (CD3, CD4, CD8, CD11b) and incubated for 30 minutes at 4° C. in the dark, followed by washing and centrifugation steps. […] Samples were acquired in a LSR-Fortessa flow cytometer (BD Biosciences) using the high throughput sampler and data analyzed by FlowJo software (Tree Star Inc).

Molecule | EC50 above that of 131AVH6VL6-hIgG1 [5] [%] | also measured
Fc-mCD70 (Fc fusion) | – | GM FITC [1]: 1280; GM FITC [2]: 1060; cells in the + gate [3]: 58.9%; cells in the + gate [4]: 52.5%
B1 | ≤ 10 | –
B2 | ≤ 10 | –
B3 | ≤ 10 | –
B4 | ≤ 10 | –
B5 | ≤ 10 | –
B6 | ≤ 10 | –
B7 | ≤ 10 | –
B8 | ≤ 10 | –
B9 | ≤ 10 | –
